Values quoted from earlier work as cited in publication PMC9027846.

Molecular target: Plasmin (Homo sapiens) (UniProt P00747)
Assay: BLI

Sequence of UniProt P00747 (P00747 581-810): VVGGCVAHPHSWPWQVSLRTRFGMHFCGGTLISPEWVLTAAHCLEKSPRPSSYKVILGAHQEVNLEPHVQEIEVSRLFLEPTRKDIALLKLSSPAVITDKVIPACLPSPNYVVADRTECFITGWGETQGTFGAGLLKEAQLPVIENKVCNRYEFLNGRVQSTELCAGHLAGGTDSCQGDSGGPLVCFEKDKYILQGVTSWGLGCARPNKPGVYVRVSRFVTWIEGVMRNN

With AaTI (from UniProt Q177W0) as the substance, how does the Kd read?
The Kd was 62.8 nM.
